Target: htt-N63-148Q (63 amino acid N-terminal huntingtin fragment containing 148 polyglutamine repeats) (UniProt P42858)
Assay: cell-based or functional assay

Sequence of htt-N63-148Q (63 amino acid N-terminal huntingtin fragment containing 148 polyglutamine repeats) (P42858 other isoform, or with tags, fused parts or gaps limits assumed): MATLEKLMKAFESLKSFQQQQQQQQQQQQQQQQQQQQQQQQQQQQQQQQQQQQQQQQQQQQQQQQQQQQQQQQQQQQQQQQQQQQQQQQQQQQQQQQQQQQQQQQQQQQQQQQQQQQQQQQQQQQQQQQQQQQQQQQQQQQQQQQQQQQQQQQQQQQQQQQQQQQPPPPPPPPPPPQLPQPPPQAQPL

TG-catalyzed modifications of huntingtin (second experiment, HEK-293T cells) (fold decrease)	TG-modified huntingtin (81D4 immunoprecipitation, immunoblot, HEK-293T cells) (fold decrease)	carbachol-stimulated intracellular Ca2+ release (Fura-2, HEK-293T cells) [% decrease]	Substance	cytotoxicity (LDH assay, HEK-293T cells) [% decrease]	cytotoxicity (LDH assay, second experiment, HEK-293T cells) [% decrease]
2	2		CaM-C-term (C-terminal CaM construct, last 72 amino acids of calmodulin) (from UniProt P0DP23 78-149)	40	40
2	2	10	CaM-center (center region CaM construct, 77 amino acids in the center of calmodulin) (from UniProt P0DP23 37-113)	40	50
